Experiment [1] concerns the target whole LFA-1 in which the α subunit contains an I-domain in the low affinity locked closed state, on cells (LA cells) (human) (UniProt P05107). Briefly: phage ELISA, LA form of LFA-1, with Mg2+. A general note: ELISA stands for enzyme-linked immunosorbent assay.
The target is the same in experiment [2]. Nature of the experiment: phage ELISA, LA form of LFA-1, without Mg2+.
For experiment [3], the target named is whole LFA-1 in which the α subunit contains an I-domain in the high affinity locked open state, on cells (HA cells) (human) (UniProt P05107). Briefly: inhibition of ICAM binding to HA cells, Guava analysis; first experiment.
Experiment [4] shares this target. Briefly: inhibition of ICAM binding to HA cells, Guava analysis; second experiment.
Experiment [5] addresses human wild-type LFA-1 on cells (human) (UniProt P20701). Briefly: inhibition of ICAM binding to human PBMCs; average of four experiments.
Experiment [6] has as its target whole LFA-1 in which the α subunit contains an I-domain in the high affinity locked open state, on cells (HA cells) (human) (UniProt P05107). Briefly: inhibition of ICAM binding to HA cells, Guava analysis; fourth experiment.
The target is the same in experiment [7]. Nature of the experiment: inhibition of ICAM binding to HA cells, Guava analysis; third experiment.

Sequence of human wild-type LFA-1 on cells (human) (P20701 other isoform, or with tags, fused parts or gaps limits assumed, chain 1 of 2): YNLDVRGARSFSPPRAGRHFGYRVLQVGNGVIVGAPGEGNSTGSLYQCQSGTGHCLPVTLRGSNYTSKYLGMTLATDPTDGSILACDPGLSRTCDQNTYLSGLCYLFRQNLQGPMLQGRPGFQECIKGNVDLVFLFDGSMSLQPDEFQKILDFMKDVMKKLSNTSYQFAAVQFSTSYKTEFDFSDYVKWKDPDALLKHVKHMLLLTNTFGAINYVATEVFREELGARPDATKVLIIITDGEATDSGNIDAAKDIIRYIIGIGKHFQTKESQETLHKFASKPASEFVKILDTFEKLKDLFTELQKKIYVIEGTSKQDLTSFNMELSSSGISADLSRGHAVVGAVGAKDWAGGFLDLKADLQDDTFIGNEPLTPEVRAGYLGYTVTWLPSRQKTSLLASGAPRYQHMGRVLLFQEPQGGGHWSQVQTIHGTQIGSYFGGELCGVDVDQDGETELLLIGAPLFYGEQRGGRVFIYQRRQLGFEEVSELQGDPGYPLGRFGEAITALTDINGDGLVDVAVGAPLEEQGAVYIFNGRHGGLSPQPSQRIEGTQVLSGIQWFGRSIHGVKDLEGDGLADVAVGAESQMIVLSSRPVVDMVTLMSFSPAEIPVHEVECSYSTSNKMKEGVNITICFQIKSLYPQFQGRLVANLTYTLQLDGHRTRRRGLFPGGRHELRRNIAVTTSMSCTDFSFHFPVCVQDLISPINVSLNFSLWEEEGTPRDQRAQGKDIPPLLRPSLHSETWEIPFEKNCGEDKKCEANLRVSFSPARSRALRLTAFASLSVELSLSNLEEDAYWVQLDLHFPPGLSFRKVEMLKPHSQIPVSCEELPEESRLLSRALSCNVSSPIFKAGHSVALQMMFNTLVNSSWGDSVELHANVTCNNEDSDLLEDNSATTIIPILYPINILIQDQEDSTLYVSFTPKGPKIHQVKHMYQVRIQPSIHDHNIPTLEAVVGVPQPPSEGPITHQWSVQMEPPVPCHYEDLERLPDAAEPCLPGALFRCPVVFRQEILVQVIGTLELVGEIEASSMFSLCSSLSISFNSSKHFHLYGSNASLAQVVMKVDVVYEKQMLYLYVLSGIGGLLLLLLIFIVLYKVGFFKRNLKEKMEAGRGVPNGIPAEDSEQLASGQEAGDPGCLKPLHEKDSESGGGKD
Sequence of human wild-type LFA-1 on cells (human) (chain, as listed by the source limits assumed, chain 2 of 2): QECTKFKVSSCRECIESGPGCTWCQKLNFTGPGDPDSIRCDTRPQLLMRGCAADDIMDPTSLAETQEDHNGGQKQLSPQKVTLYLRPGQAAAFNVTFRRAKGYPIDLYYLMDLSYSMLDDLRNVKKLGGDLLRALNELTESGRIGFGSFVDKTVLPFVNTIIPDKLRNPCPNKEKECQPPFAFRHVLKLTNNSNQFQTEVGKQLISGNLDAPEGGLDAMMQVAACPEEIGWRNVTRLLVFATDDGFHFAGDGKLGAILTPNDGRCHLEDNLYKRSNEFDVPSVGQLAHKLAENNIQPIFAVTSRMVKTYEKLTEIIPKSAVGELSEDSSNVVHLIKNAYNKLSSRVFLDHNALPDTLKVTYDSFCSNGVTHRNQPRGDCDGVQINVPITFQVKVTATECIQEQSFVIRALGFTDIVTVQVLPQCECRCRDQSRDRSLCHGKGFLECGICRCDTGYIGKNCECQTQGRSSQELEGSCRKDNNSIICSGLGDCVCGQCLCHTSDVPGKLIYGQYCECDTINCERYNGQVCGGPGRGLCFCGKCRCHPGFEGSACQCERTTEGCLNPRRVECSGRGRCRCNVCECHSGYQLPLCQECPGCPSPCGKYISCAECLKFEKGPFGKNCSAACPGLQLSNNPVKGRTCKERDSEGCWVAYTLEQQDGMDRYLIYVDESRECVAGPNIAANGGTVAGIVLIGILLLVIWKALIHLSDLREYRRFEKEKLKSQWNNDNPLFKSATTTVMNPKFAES

Regarding “Control #2 (another protein that binds to a different target)”, the ELISA signal (arbitrary units) in experiment [1] is 0.14; in experiment [2], 0.07.
The IC50 is the concentration at which inhibition is half-maximal. Consider MHM24 IgG (antibody), for which the IC50 in experiment [3] was found to be 0.24 nM; in experiment [4], 1.8 nM; in experiment [5], 0.33 nM; in experiment [6], 2.4 nM; in experiment [7], 0.59 nM.
For “Control #1 (a phage that binds to a different target)”, the ELISA signal (arbitrary units) in experiment [1] came to 0.13; in experiment [2], 0.07.

These data come from patent US20080069777A1.
